± gives the uncertainty stated by the source.
B1: Spectrin alpha chain, erythrocytic 1, residues 979 to 1036; numbered along this chain, P02549 (parent)
chain: EQRVMALYDFQARSPREVTMKKGDVLTLLSSINKDWWKVEAADHQGIVPAVYVRRLAH

Variants of: B1
Assay: abundance fitness (aPCA) (normalised: wild type 0, dead -1); higher = more abundant; growth selection in yeast, the domain comes from the species named
Conditions: Homo sapiens

Abundance fitness: each site, then its substitutions
V51: F 0.246 ± 0.26 | K 0.525 ± 0.14 | H 0.216 ± 0.26 | D 0.148 ± 0.26 | E -0.31 ± 0.24 | I 0.201 ± 0.17 | A 0.616 ± 0.075 | G 0.146 ± 0.099
V48: L -0.717 ± 0.19 | W -0.809 ± 0.29 | R -0.551 ± 0.19 | M -0.556 ± 0.36 | A -0.687 ± 0.17 | G -1.09 ± 0.33 | Q -0.656 ± 0.12 | C -0.502 ± 0.29 | K -0.56 ± 0.11 | T -0.727 ± 0.17
Q45: V 0.1 ± 0.17 | R -0.037 ± 0.066 | A -0.171 ± 0.13 | C -0.103 ± 0.24 | I 0.027 ± 0.36 | P -0.565 ± 0.28 | G -0.754 ± 0.16 | S -0.004 ± 0.094 | L -0.713 ± 0.19 | T 0.516 ± 0.14 | W -0.889 ± 0.42 | E 0.039 ± 0.4 | K 0.09 ± 0.12 | D -0.498 ± 0.27
W37: R -0.267 ± 0.2 | V 0.367 ± 0.1 | I 0.405 ± 0.2 | M -0.12 ± 0.2 | L 0.323 ± 0.059
A42: S -0.133 ± 0.25 | C -0.197 ± 0.24 | T -0.503 ± 0.24 | L 0.178 ± 0.16 | H -0.031 ± 0.33 | N 0.315 ± 0.2 | Q -0.021 ± 0.077 | F -0.002 ± 0.4 | P -0.223 ± 0.36 | E -0.089 ± 0.25 | G 0.455 ± 0.059 | R -0.243 ± 0.16
A50: M -0.823 ± 0.2 | G -0.967 ± 0.19 | D -0.872 ± 0.22 | R 0.04 ± 0.12 | P -0.847 ± 0.4 | S 0.011 ± 0.087 | L -0.844 ± 0.2 | V -0.79 ± 0.29 | W -0.879 ± 0.23 | C -0.512 ± 0.3
E40: M -0.125 ± 0.26 | G -0.217 ± 0.14 | R 0.217 ± 0.086 | S -0.187 ± 0.11 | Q 0.188 ± 0.17 | P -0.744 ± 0.5 | A 0.243 ± 0.058 | K 0.29 ± 0.21 | L -0.652 ± 0.12 | V -0.573 ± 0.21 | T -0.222 ± 0.19 | D -0.388 ± 0.094
D43: P -0.552 ± 0.38 | W -0.622 ± 0.23 | Q 0.413 ± 0.21 | T -0.223 ± 0.23 | N -0.105 ± 0.31 | A -0.314 ± 0.21 | G 0.567 ± 0.076 | V -0.537 ± 0.23 | L -0.876 ± 0.36 | I -0.387 ± 0.19 | R -0.708 ± 0.34 | H 0.129 ± 0.26 | S 0.096 ± 0.17
I47: C -0.226 ± 0.41 | F 0.349 ± 0.21 | L 0.065 ± 0.13 | Y 0.304 ± 0.23 | V 0.228 ± 0.16 | S -0.659 ± 0.23 | N -0.25 ± 0.18 | T -0.701 ± 0.42 | W 0.461 ± 0.15 | M 0.561 ± 0.11 | A -0.532 ± 0.32 | E -0.727 ± 0.43
A41: V -0.633 ± 0.33 | T 0.043 ± 0.15 | Q -0.287 ± 0.36 | Y -0.448 ± 0.45 | C 0.001 ± 0.086 | L -0.208 ± 0.16 | S 0.232 ± 0.12 | K 0.033 ± 0.21 | E -0.851 ± 0.49 | G 0.154 ± 0.08 | R 0.049 ± 0.092 | N -0.024 ± 0.23 | I -0.482 ± 0.35
K38: V 0.303 ± 0.061 | M 0.083 ± 0.17 | R -0.033 ± 0.14 | W -0.168 ± 0.076 | A -0.258 ± 0.29 | H -0.016 ± 0.4 | P -0.701 ± 0.34 | S -0.301 ± 0.096 | Y -0.311 ± 0.28 | I 0.097 ± 0.38 | E 0.281 ± 0.19 | G -0.832 ± 0.41 | Q 0.041 ± 0.24 | F 0.208 ± 0.25 | C 0.284 ± 0.19 | T 0.373 ± 0.14
P49: G -0.44 ± 0.25 | A -0.932 ± 0.38 | Y -0.72 ± 0.36 | T -0.477 ± 0.37 | L -0.887 ± 0.36 | E -0.854 ± 0.18 | K -0.47 ± 0.42 | N -0.694 ± 0.14 | W -0.792 ± 0.41 | V -0.797 ± 0.36 | S -0.497 ± 0.42 | Q -0.898 ± 0.21
V39: G -0.705 ± 0.22 | E -0.332 ± 0.18 | F -0.658 ± 0.42 | P -0.319 ± 0.44 | W -0.564 ± 0.2 | S -0.886 ± 0.13 | K -0.742 ± 0.43 | R -0.852 ± 0.24
H44: C -0.016 ± 0.35 | M -0.039 ± 0.28 | W -0.483 ± 0.23 | Y -0.804 ± 0.41 | T -0.107 ± 0.23 | A -0.051 ± 0.13 | G 0.292 ± 0.081 | Q 0.119 ± 0.2 | V -0.156 ± 0.12 | L -0.692 ± 0.12 | K 0.555 ± 0.49 | P -0.95 ± 0.17 | S 0.03 ± 0.1
G46: K -0.459 ± 0.37 | L -0.227 ± 0.17 | S -1.04 ± 0.49 | Y -0.897 ± 0.25 | V -1.03 ± 0.49 | E -0.023 ± 0.27 | C -0.361 ± 0.34 | R -0.58 ± 0.18 | W -0.452 ± 0.38
